Leftward shift in the Slo-1 activation curve (V1/2act) in the presence of 50 µM free Ca2+ data for one molecule are collected here from US6994968.

This experiment deals with human Slo1 (human), Q12791. In words: cell-based or functional assay.
human Slo1 (human), Q12791, sequence (Q12791 whole entry): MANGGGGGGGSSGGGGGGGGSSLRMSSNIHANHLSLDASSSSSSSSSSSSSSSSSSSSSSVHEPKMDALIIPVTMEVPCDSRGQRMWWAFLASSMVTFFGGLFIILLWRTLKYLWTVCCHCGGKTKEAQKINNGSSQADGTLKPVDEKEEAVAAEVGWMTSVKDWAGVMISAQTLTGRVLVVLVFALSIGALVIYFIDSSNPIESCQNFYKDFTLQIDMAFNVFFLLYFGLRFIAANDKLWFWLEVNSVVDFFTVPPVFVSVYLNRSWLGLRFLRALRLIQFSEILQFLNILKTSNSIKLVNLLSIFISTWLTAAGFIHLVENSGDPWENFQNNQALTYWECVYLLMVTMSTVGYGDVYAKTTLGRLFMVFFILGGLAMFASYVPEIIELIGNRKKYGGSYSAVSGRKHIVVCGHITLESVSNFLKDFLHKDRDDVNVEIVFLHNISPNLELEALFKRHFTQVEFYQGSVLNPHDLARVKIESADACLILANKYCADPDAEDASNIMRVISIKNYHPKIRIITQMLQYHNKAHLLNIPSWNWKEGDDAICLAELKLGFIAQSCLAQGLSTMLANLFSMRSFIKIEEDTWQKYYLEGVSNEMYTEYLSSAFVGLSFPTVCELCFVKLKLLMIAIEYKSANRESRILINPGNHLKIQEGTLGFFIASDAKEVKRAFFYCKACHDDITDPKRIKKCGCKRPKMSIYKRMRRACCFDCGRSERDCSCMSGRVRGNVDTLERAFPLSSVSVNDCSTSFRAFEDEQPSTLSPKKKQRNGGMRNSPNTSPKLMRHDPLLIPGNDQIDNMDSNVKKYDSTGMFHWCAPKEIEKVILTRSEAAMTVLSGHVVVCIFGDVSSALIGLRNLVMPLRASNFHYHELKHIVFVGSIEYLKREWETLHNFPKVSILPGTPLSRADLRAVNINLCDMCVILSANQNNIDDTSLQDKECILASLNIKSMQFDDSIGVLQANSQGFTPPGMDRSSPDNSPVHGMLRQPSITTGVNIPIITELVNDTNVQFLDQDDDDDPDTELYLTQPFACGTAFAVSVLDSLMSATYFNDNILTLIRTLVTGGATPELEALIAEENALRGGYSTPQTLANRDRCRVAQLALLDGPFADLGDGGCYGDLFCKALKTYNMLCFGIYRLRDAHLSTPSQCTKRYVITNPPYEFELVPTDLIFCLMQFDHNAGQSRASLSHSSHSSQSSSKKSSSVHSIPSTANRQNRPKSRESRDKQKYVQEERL

B1: human BK beta 3, Q86W47 1-210 (protein)
chain: MAKLRVAYEYTEAEDKSIRLGLFLIISGVVSLFIFGFCWLSPALQDLQATEANCTVLSVQQIGEVFECTFTCGADCRGTSQYPCVQVYVNNSESNSRALLHSDEHQLLTNPKCSYIPPCKRENQKNLESVMNWQQYWKDEIGSQPFTCYFNQHQRPDDVLLHRTHDEIVLLHCFLWPLVTFVVGVLIVVLTICAKSLAVKAEAMKKRKFS
For the molecule B1, the leftward shift in the Slo-1 activation curve (V1/2act) in the presence of 50 µM free Ca2+ turned out to be 15 mV.
